Assay [1] deals with His6-Prp43 (S. cerevisiae) (UniProt P53131).
Assay [2] shares this target. This is another data set of the same source.

Chain of His6-Prp43 (S. cerevisiae) (P53131 whole entry): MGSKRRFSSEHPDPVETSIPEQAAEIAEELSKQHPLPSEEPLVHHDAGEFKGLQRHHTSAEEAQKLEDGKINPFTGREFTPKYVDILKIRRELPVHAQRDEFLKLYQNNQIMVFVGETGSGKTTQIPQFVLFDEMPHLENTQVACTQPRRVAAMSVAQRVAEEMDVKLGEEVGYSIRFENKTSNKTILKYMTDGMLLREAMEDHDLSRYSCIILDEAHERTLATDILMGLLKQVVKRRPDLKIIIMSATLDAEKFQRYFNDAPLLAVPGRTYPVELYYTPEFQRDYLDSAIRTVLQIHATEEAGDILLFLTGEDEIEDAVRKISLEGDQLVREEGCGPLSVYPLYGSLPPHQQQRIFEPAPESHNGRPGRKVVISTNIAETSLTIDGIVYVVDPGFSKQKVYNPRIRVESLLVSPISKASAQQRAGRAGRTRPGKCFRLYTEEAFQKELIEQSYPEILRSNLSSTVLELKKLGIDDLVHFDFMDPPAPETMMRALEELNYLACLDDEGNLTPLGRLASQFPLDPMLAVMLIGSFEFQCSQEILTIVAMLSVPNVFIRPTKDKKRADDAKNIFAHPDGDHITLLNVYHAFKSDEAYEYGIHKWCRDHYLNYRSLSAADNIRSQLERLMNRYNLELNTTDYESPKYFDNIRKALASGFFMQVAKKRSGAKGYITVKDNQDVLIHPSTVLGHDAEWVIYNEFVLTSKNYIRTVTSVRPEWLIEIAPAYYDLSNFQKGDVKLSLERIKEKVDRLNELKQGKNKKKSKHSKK

Turning to GST-Tma23^G (domain or fragment), the stimulation of Prp43 ATPase activity by Tma23^G added at a 1:1 or 10:1 molar ratio (NADH-coupled assay, 2.5 mM ATP) in assay [1] came to 3 fold. In assay [2], this substance returned an ATPase activity of the Prp43-T^G fusion against Prp43 with an equimolar amount of Tma23^G of 30 fold.
As to GST-Pxr1^G (domain or fragment), the ATPase activity of the Prp43-P^G fusion against Prp43 with an equimolar amount of Pxr1^G in assay [2] is 2 fold.

These data come from article PMC11584650, “An inhibitory segment within G-patch activators tunes Prp43-ATPase activity during ribosome assembly” (Nature Communications, 2024).
